From publication PMC5823975, “Ubiquitin-Mediated Regulation of RIPK1 Kinase Activity Independent of IKK and MK2” (Molecular Cell, 2018)
Like-named read-outs stand apart in the source and are kept apart here. Each block holds one molecule with its values, some of them ahead of it.

What was measured:
[1] = target: cIAP2 BIR1 (Homo sapiens) (UniProt Q13489); details: cited from earlier work
[2] = target: T1, TRAF2 segment (recombinant, ITC) (human, UniProt Q12933 1-501); assay: ITC; cIAP2 protein (2-4 mM) injected into 0.20 mM TRAF2; 16°C; 25 mM Tris-HCl pH 8.0, 150 mM NaCl; MicroCal ITC200
T1 construct: human TRAF2 segment; it compares with Zheng et al. (2010); source: E. coli BL21 (DE3), purified (Ni-Sepharose, HiTrap Q, Superdex 200); not shown: His-SUMO, N-terminal, cleaved
T1 sequence (looked up): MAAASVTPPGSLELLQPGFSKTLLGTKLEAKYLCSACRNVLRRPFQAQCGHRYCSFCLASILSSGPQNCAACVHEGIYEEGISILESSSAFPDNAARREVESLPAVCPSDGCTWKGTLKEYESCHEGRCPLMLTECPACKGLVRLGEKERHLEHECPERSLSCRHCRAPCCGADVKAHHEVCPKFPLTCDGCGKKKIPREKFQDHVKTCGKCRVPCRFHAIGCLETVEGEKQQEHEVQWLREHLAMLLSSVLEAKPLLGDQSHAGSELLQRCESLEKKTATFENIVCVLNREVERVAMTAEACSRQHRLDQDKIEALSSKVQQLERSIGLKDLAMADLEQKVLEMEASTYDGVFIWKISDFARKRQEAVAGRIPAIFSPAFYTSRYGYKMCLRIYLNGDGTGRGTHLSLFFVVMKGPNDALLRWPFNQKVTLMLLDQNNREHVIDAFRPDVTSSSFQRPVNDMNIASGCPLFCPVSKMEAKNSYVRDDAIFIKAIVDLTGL

Molecule: TRAF2 (from UniProt Q12933)
Kd [1]: 1700 nM

Kd [2]: 480000 nM
Molecule: UBA domain of cIAP2 (from UniProt Q13489 372-425) (domain or fragment)

Kd ([2]; both partners purified): 430 nM
B1: cIAP2 segment with the BIR1 in conjunction with the UBA domain (domain or fragment)
chain: LSCELYRMSTYSTFPAGVPVSERSLARAGFYYTGVNDKVKCFCCGLMLDNWKRGDSPTEKHKKLYPSCRFVQSLNSVNNLEATSQPTFPSSVTNSTHSLLPGTENSGYFRGSYSNSPSNPVNSRANQDFSALMRSSYHCAMNNENARLLTFQTWPLTFLSPTDLAKAGFYYIGPGDRVACFACGGKLSNWEPKDNAMSEHLRHFPKCPFIENQLQDTSRYTVSNLSMQTHAARFKTFFNWPSSVLVNPEQLASAGFYYVGNSDDVKCFCCDGGLRCWESGDDPWVQHAKWFPRCEYLIRIKGQEFIRQVQASYPHLLEQLLSTSDSPGDENAESSIIHFEPGEDHSEDAIMMNTPVINAAVEMGFSRSLVKQTVQRKILATGENYRLVNDLVLDLLNAEDEIREEERERAT
modifications: Zn2+ bound by the BIR domains
